This is an account of results in the supplement of paper PMC10567573.

± gives the standard deviation.

The nature of the data set: protein stability index of a GFP-peptide fusion (GPS, HEK-293T) (PSI 1-6); higher = more stable.
Where [1] appears, read: treatment: DMSO, c terminus: a fixed tail appended.
Setting [2] is: treatment: MLN4924 1 uM, 8 h, c terminus: a fixed tail appended.
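Note: 24-mer peptide tiles fused after GFP, lentivirally expressed, FACS-sorted into six equal bins by GFP/DsRed ratio, decoded by Illumina sequencing, PSI is the read-weighted mean bin number.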

Turning to QKKIGAYDQQIWEKSIEQTQIKGL [PHTF1], the protein stability index is, setting by setting: under setting [1], 3.76 ± 0.12; under setting [2], 3.73 ± 0.22.
The matching figures for VRGPLQDSSWYEPSAELVQTRMAV [ZNF232]: 2.96 ± 0.17 and 3.09 ± 0.24.
TQSVMGFDPLPPSDTIYSYVRPER [TCF25]: the protein stability index came to 3.52 ± 0.32 under setting [1] and 3.73 ± 0.12 under setting [2].
The matching figures for GGFAKCYEMTDLTNNKVYAAKIIP [PLK2]: 2.52 ± 0.38 and 2.81 ± 0.29.
Taken in the same sequence, the figures for DTVTIPVPSEEPQESDQTEEHESG [IQUB] were 5.54 ± 0.29 and 5.72 ± 0.14.
Taken in the same sequence, the figures for VLKTRMALRKTGQYSGMLDCARRI [SLC25A25] were 2.53 ± 0.17 and 2.78 ± 0.18.
For the sequence SGGVASFICQATGDPRPKIVWNKK [PTPRD], the protein stability index turned out to be 3.46 ± 0.49 under setting [1] and 3.58 ± 0.11 under setting [2].
On to ITLLILAELLIFSVPIVYEKYKTQ [RTN3], for which the protein stability index reads like this: under setting [1], 3.41 ± 0.32; under setting [2], 3.4 ± 0.94.
The matching figures for AIIRERSSCVKILLDHNANIDIQN [ASB7]: 2.52 ± 0.4 and 2.64 ± 0.26.
The matching figures for EDMEASDYELEDETRPAKRITITE [WEE1]: 5.42 ± 0.25 and 5.36 ± 0.17.
As for RDLASVPPELTASRQSFRMAMGNP [DVL3], the protein stability index is, setting by setting: under setting [1], 3.75 ± 0.32; under setting [2], 3.81 ± 0.13.
The matching figures for LAQRTQQDSTRTVGERLQDTHSWK [TEKT4]: 4.42 ± 0.6 and 4.64 ± 0.21.
Taken in the same sequence, the figures for QTNSTKNSAAATSPKGTLPPAALE [CAMK2B] were 5.32 ± 0.16 and 5.22 ± 0.24.
With THGVGLVLRVEQQPHLPLLSTLAG [SCNN1D], the protein stability index under setting [1] worked out at 2.12 ± 0.23 and the protein stability index under setting [2] was 2.17 ± 0.15.
Taken in the same sequence, the figures for GRVLRKLPFLAHALYVQAPTVTIE [TRIP13] were 2.32 ± 0.54 and 2.05 ± 0.45.
Taken in the same sequence, the figures for KKDILLVNDHLLNFVRERTLDKRW [PDS5B] were 2.13 ± 0.26 and 2.35 ± 0.18.
In the case of SGTIMKIGIEAKNLASYDVCSILL [MCOLN1], the protein stability index was determined as 2.87 ± 0.55 under setting [1] and 2.64 ± 0.37 under setting [2].
The matching figures for ENRGIVVLGINRAYGKNSLSKNLI [AUH]: 2.84 ± 1.2 and 2.44 ± 1.2.
The matching figures for TKKHIPYREHKSLTGTARYMSINT [CSNK1G1]: 2.51 ± 0.15 and 2.65 ± 0.23.
The matching figures for TSLRLVFLLAFGLMIIVCIDQWKN [RETREG3]: 2.21 ± 0.3 and 2.03 ± 0.17.
Take PCKLEKMRILAHGELVLATAISSF [TLE6]: the protein stability index is 2.7 ± 0.36 under setting [1] and 2.45 ± 0.41 under setting [2].
The matching figures for LFFPVIYDVKYLMKSCKNLKGGLQ [CNOT7]: 2.72 ± 0.35 and 2.5 ± 0.28.
The matching figures for RCVRVFLEHGADPTVKDLIGGFTA [ASB7]: 2.4 ± 0.78 and 2.04 ± 0.41.
Taken in the same sequence, the figures for SAGVGRTGVFITLSIVLERMRYEG [PTPRD] were 2.08 ± 0.095 and 2.34 ± 0.28.
As to ELDELASKAPVLTYGQPKQAPPAD [EFHC1], the protein stability index under setting [1] is 5.44 ± 0.25 and the protein stability index under setting [2] worked out at 5.59 ± 0.15.
Turning to NLQSLKFQGGHGPAATLLRRSKT [RIPK4], the protein stability index was found to be 3.18 ± 0.21 (treatment: DMSO, c terminus: native) and 3.27 ± 0.14 (treatment: MLN4924 1 uM, 8 h, c terminus: native).
Turning to SGFWGVARHFNYVGDLMGSLAYCL [DHCR7], the protein stability index runs as follows: under setting [1], 2.11 ± 0.48; under setting [2], 2.07 ± 0.11.
The matching figures for STKMDCVWSNWKSQAIDLLYWRDI [RTN1]: 2.37 ± 0.34 and 2.27 ± 0.28.
The matching figures for DEMVIVKDIDMFSMCEHHLVPFVG [GCH1]: 2.76 ± 0.22 and 2.64 ± 0.37.
